Test results: the supplement of paper PMC9170038

Tests used:
[1] = test system: MS2 coat protein; experiment: apparent KD of MS2 coat protein, switch ON state; designed switch direction (-1 OFF switch, 1 ON switch): -1; higher = weaker reporter binding; details: FMN input: 0 or 200 uM; Eterna round: R93 (includes R88 designs)
How it was run: (§1)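 The designed RNA switches were transcribed on-chip from Illumina sequencing clusters. In 100 mM Tris-HCl pH 7.5, 80 mM KCl and 4 mM MgCl2, without or with constant ligand, they were titrated with SNAP-549-labelled MS2 coat protein from 0.7 or 1.5 nM to 3 µM in twofold steps. Apparent KD is the per-design median of normalised cluster binding-curve fits.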

[2] = test system: MS2 coat protein; experiment: apparent KD of MS2 coat protein, switch OFF state (with FMN for OFF switches, without FMN for ON switches); designed switch direction (-1 OFF switch, 1 ON switch): -1; higher = weaker reporter binding; details: FMN input: 0 or 200 uM; Eterna round: R93 (includes R88 designs)
How it was run: as §1

Row | Sequence | apparent KD of MS2 coat protein [1] [nM] | apparent KD of MS2 coat protein [2] [nM]
1 | AAAAAGCAAGGAUAUACAUGAGGAUCACCCAUGUGAAAAAAAACAAUAAGAAGAACAAGUAGAAGGUGCAAAAA [Mod of Ex3 Tesla 1 - Jieux - Exclusion 3] | 19.5 | 28.2
2 | AAAAAGCGAGGAUAUACAUGAGGAUCACCCAUGUGAGAGAAAAAAAGGAGAAAAAAAAGUAGAAGGCGCAAAAA [Abraham Harold Maslow] | 63.8 | 68.3
3 | AAAAAGCGAGGAUAUACGAAGCUAAGACAAAUAAGCAAGGGACAUGAGGAUCACCCAUGUAGAAGGCGCAAAAA [Exclusion 2-01... 60% 2] | 29.4 | 58.6
4 | AAAAAGCGAGGAUAUACGAGUCAAAGAAAAGACAAAAGGGAACAUGAGGAUCACCCAUGUAGAAGGCGCAAAAA [Fiskers exclusion D2 62% 2] | 30 | 100
5 | AAAAAGGCAGGAUAUACAAAACAGGGAAACCUGAAAGGGAAACAUGAGGAUCACCCAUGUAGAAGGGCCAAGAA [Clint Eastwood 64% 1] | 37.3 | 95.4
6 | AAAAAGGCAGGAUAUGCAUACUCACGGAAAAAAAGGUUGGGACAUGAGGAUCACCCAUGUAGAAGGGCCAAAAA [Dora Explored 14 - Jieux - Exclusion 2] | 29.6 | 23.8
7 | AAAAAGGGAGGAUAUACGAAACAGGGAAACCUGAAAAGGAGACAUGAGGAUCACCCAUGUAGAAGGCCCAAGAA [Clint Eastwood 64% 4] | 25.3 | 53.3
8 | AAAAAGUCAGGAUAUACAAAAGUGCGAAAGCACAAAAGGAAACAUGAGGAUCACCCAUGUAGAAGGGACAAGAA [Married to this design] | 42.3 | 24.2
9 | AAAAAGUCAGGAUAUACGGGAGUGCGAAAGCACAAAAAAAAACAUGAGGAUCACCCAUGUAGAAGGGACAAGAA [Married to this design, 61% 5] | 46.1 | 34.5
10 | AAAAAGUCAGGAUAUGCUUAUAAUAAGAAAAUUAGAGAUAUGCAGAAGGGACAUGAGGAUCACCCAUGUAAAAA [Ex 4.1] | 53.2 | 36.4
11 | AAAAAGUCAGGAUAUUCGGAUAGGAAAACGAAAACCUAUCCGAAGAAGGGACAUGAGGAUCACCCAUGUGGAAA [67% Ecls-II - Late G segment 1] | 88.7 | 170
12 | AAAAAGUGAGGAUAUACAGAUAAAAAAACGAAAAAAAAUCUGUAGAAGGCACAUGAGGAUCACCCAUGUAAAAA [Ex 4 May 3] | 43.4 | 39
13 | AAAAAGUGAGGAUAUACAUGAGGAUCACCCAUGUAAAAAAAAAAAAGGGUGGAAGAAAGUAGAAGGCACCAAAA [Ex 3 May 47] | 67.3 | 75.1
14 | AAAAAGUGAGGAUAUACAUGAGGAUCACCCAUGUAAAAGGUCAGGGUGGCGGAGGACGGUAGAAGGCGCAAAAA [Excls3-IX] | 34.5 | 40.2
15 | AAAAAGUGAGGAUAUACAUGAGGAUCACCCAUGUAAAAGGUCGCGGGAGCGGAGGACGGUAGAAGGCGCAAAAA [Excls3-VIIi] | 25.3 | 28.9
16 | AAAAAGUGAGGAUAUACAUGAGGAUCACCCAUGUGUAUAAAAAAUUACACAAAAGAAAGUAGAAGGCACUAAAA [Ex 3 Summer] | 20.3 | 32
17 | AAAAAGUGAGGAUAUACGUUAAAAAAAAAAAAAAAAAAGCAGUAGAAGGCACAUGAGGAUCACCCAUGUAAAAA [Ex4 Malc#2] | 41.3 | 26
18 | AAAAAGUGAGGAUAUCUGGAUAGGAAAAAGAAAACCUAUCCAGAGAAGGCACAUGAGGAUCACCCAUGUAAAAA [JL cataway mod 5] | 31.6 | 41.2
19 | AAAAAGUUAGGAUAUACAGAUAAAAAAACGAAAAAAAAUCUGUAGAAGGAACAUGAGGAUCACCCAUGUAAAAA [Ex 4 May 2] | 25.6 | 16.7
20 | AAAAAUGCAGGAUAUACGAACAUGUCAAAAGACGUGAAGGGACAUGAGGAUCACCCAUGUAGAAGGGUAAAGAA [JL Neck Breaker 14] | 248 | 46

Row | Sequence | apparent KD of MS2 coat protein [1] [nM] | apparent KD of MS2 coat protein [2] [nM]
21 | AAAAAUGGAGGAUAUACAUGAGGAUCACCCAUGUGUAACUAUACUAAGCACAAACCAAGUAGAAGGCCAAAAAA [Gilly Gone Silly 10 - Jieux - Exclusion 3] | 45.4 | 95.3
22 | AAAAAUGGAGGAUAUACAUGAGGAUCACCCAUGUGUGGGCAUACUAUGUGGGCGUCAGGUAGAAGGCCAAAAAA [Gilly Gone Silly 25 - Jieux - Exclusion 3] | 93.7 | 273
23 | AAAACACAUGAGGAUCACCCAUGUCAGGAUAUACGAGAAAGAAAAGAAAAGAAAAGAAGUAGAAGGGACUAGAA [Exclusion1 Malc#3] | 15.7 | 22.4
24 | AAAACACAUGAGGAUCACCCAUGUGAGGAUAUGCUAUGGAAAAUAAAAAUAAAACAUAGCAGAAGGCACAAGGA [Denovo 17] | 28 | 50
25 | AAAACGGCAGGAUAUACAAUUGAGAACUAGAUCGAAAAAAAACAUGAGGAUCACCCAUGUAGAAGGGCCAAAAA [Ex2 Malc#9] | 34.7 | 55.3
26 | AAAACGGCAGGAUAUACGAUUUGGAACUAGACCGAGGAACCACAUGAGGAUCACCCAUGUAGAAGGGCCAAAAA [Ex2 Malc#16] | 17.2 | 19.7
27 | AAAACGGUAGGAUAUACAAUUGGGAACUAGACCGAAAAAAAACAUGAGGAUCACCCAUGUAGAAGGGCCAAAAA [Ex2 Malc#11] | 47.8 | 91.2
28 | AAAACGUCAGGAUAUACAGAAGAGAUCACGAAAAAAAAAAAACAUGAGGAUCACCCAUGUAGAAGGGACAAAAA [Ex2 Malc#3] | 117 | 136
29 | AAAACUGGAGGAUAUACGAACAUGUCGAAAGACGUGAAGGGACAUGAGGAUCACCCAUGUAGAAGGCUAGAAAA [Mat - Exclusion 2 - JL mod - D72] | 42.5 | 58.4
30 | AAAAGGCGAGGAUAUACAUGAGGAUCACCCAUGUAAGUAAGCCUGGCUGAAACUAAAUGUAGAAGGCGCAAAAA [Mat - Exclusion 3 - Neo mod - D73] | 18.2 | 56.2
31 | AAAAGGGCAGGAUAUACAUGAGGAUCACCCAUGUGAAAAAAAAAAAAAAAAAAAAAGUGUAGAAGGGUCAAAAA [Exclusion 3 - Omei 3] | 55.3 | 95.4
32 | AAAAUACAUGAGGAUCACCCAUGUGAGGAUAUGCUAUGGAAAAUAAAAAUAAAACAUAGCAGAAGGUACAAAAA [Denovo 14] | 18.2 | 33.4
33 | AAAAUGUCAGGAUAUGCGAAGGCGUCUGACGGACGAGGAUUGCAGAAGGGACAUGAGGAUCACCCAUGUAAAAA [Mod Hyphema's Change in Energy -added G at 31] | 79.5 | 133
34 | AAAAUGUCAGGAUAUGCGAAGGCGUCUGAUAGACGAGGCUAGCAGAAGGGACAUGAGGAUCACCCAUGUGGAAA [Power strip 63% 2] | 125 | 128
35 | AAACCACAUGAGGAUCACCCAUGUCAGGAUAUGAACGAAAUAAAAUAAAAAUAAAAGUUCAGAAGGGACAAAAA [Mat - Exclusion 1 - Eli mod - D16] | 37.4 | 48.7
36 | AAACCACAUGAGGAUCACCCAUGUCAGGAUAUGCACGAAAAUAAAUAAAAAUAAAAGUGCAGAAGGGACUAAAA [66%, Wbt, 14] | 31.9 | 45
37 | AAACCACAUGAGGAUCACCCAUGUCAGGAUAUGCUAUGGAAAAUAAAAAUAAAACAUAGCAGAAGGGACAAAAA [Denovo 6] | 37.2 | 66
38 | AAAGAUGGAGGAUAUACAUGAGGAUCACCCAUGUGGAAAAUAAAUUGGGAAAAAGAAAGUAGAAGGCCAAAAAA [Ex 3 May 41] | 45.5 | 94.7
39 | AAAGGACAAGGAUAUACAUGAGGAUCACCCAUGUGUAAAACAUAAUAAAAUAACUUAUGUAGAAGGUGUCCAAA [Mat - Exclusion 3 - Eli mod - D100] | 30.5 | 173
